The target of test [1] is TSH receptor (full length human TSHR) coated on tubes (human) (UniProt P16473). The test is described as follows: 125I-TSH binding to TSHR coated tubes, in assay buffer.
Test [2] has the same target. Put plainly: 125I-TSH binding to TSHR coated tubes, in HBD pool.
Test [3] concerns the target full length human TSHR, detergent-solubilised, coated on tubes or ELISA plate wells (human) (UniProt P16473). Put plainly: ELISA on 14C4 F(ab')2 captured preparation; preparation kept 48 hours at room temperature. Background: ELISA stands for enzyme-linked immunosorbent assay.
The target is the same in test [4]. Put plainly: ELISA on 14C4 F(ab')2 captured preparation; preparation kept 24 hours at room temperature.
Test [5] addresses TSHR LRD C-CAP (human) (UniProt P16473). The test is described as follows: ELISA on 14C4 F(ab')2 captured preparation; TSHR LRD C-CAP kept 24 hours at room temperature.
For test [6], the target named is T1, TSHR260 (human, UniProt P16473 22-260).
T1 construct: Expressed in insect cells; coated on tubes or wells by way of a mouse TSHR MAb (14C4 F(ab')2 in the stability ELISA); also called TSHR fragment of amino acids 22-260
The test is described as follows: ELISA on 14C4 F(ab')2 captured preparation; untreated TSHR260.

Test [7] concerns the target TSHR LRD C-CAP (human) (UniProt P16473). The test is described as follows: ELISA on 14C4 F(ab')2 captured preparation; TSHR LRD C-CAP kept 48 hours at room temperature.
For test [8], the target named is TSHR260-alkaline phosphatase (human). Put plainly: ELISA on 14C4 F(ab')2 captured preparation; TSHR260-AP kept 24 hours at room temperature.
For test [9] the target is unchanged. Put plainly: ELISA on 14C4 F(ab')2 captured preparation; untreated TSHR260-AP.
Test [10] has the same target. The test is described as follows: ELISA on 14C4 F(ab')2 captured preparation; TSHR260-AP kept 48 hours at room temperature.
In test [11] the target is full length human TSHR, detergent-solubilised, coated on tubes or ELISA plate wells (human) (UniProt P16473). The test is described as follows: ELISA: TSHR preparation captured on 14C4 F(ab')2 coated wells, M22 Fab-peroxidase binding; preparation stored at -80 C (untreated).
In test [12] the target is T1, TSHR260. Put plainly: ELISA on 14C4 F(ab')2 captured preparation; TSHR260 kept 24 hours at room temperature.
Test [13] addresses TSHR LRD C-CAP (human) (UniProt P16473). The test is described as follows: ELISA on 14C4 F(ab')2 captured preparation; untreated TSHR LRD C-CAP.
For test [14], the target named is T1, TSHR260. Put plainly: ELISA on 14C4 F(ab')2 captured preparation; TSHR260 kept 48 hours at room temperature.
The target of test [15] is TSH receptor (full length human TSHR) coated on tubes (human) (UniProt P16473). The test is described as follows: 125I-TSH binding inhibition, TSHR coated tubes; 0.5 units/L in assay buffer.
Test [16] has the same target. The test is described as follows: 125I-TSH binding inhibition, TSHR coated tubes; 0.25 units/L in assay buffer.
Test [17] has the same target. The test is described as follows: 125I-TSH binding inhibition, TSHR coated tubes; 1 unit/L in serum.
Test [18] has the same target. The test is described as follows: 125I-TSH binding inhibition, TSHR coated tubes; 0.5 units/L in serum.
The target is the same in test [19]. Put plainly: 125I-TSH binding inhibition, TSHR coated tubes; 0.125 units/L in serum.
The target is the same in test [20]. The test is described as follows: 125I-TSH binding inhibition, TSHR coated tubes; 4 units/L in assay buffer.
The target is the same in test [21]. Put plainly: 125I-TSH binding inhibition, TSHR coated tubes; 40 units/L in serum.
For test [22] the target is unchanged. Put plainly: 125I-TSH binding inhibition, TSHR coated tubes; 8 units/L in assay buffer.
The target is the same in test [23]. Put plainly: 125I-TSH binding inhibition, TSHR coated tubes; 2 units/L in serum.
Test [24] has the same target. Put plainly: 125I-TSH binding inhibition, TSHR coated tubes; 8 units/L in serum.
Test [25] shares this target. The test is described as follows: 125I-TSH binding inhibition, TSHR coated tubes; 0.25 units/L in serum.
Test [26] has the same target. The test is described as follows: 125I-TSH binding inhibition, TSHR coated tubes; 1 unit/L in assay buffer.
Test [27] has the same target. The test is described as follows: 125I-TSH binding inhibition, TSHR coated tubes; 2 units/L in assay buffer.
Test [28] shares this target. Put plainly: 125I-TSH binding inhibition, TSHR coated tubes; 0.125 units/L in assay buffer.
For test [29] the target is unchanged. Put plainly: 125I-TSH binding inhibition, TSHR coated tubes; 4 units/L in serum.
Test [30] has the same target. Put plainly: 125I-TSH binding inhibition, TSHR coated tubes; 40 units/L in assay buffer.
For test [31] the target is unchanged. Put plainly: 125I-TSH binding inhibition, TSHR coated tubes; 2.0 units/L, in assay buffer.
Test [32] has the same target. The test is described as follows: 125I-TSH binding inhibition, TSHR coated tubes; 8.0 units/L, in serum.
Test [33] has the same target. The test is described as follows: 125I-TSH binding inhibition, TSHR coated tubes; 4.0 units/L, in assay buffer.
For test [34] the target is unchanged. The test is described as follows: 125I-TSH binding inhibition, TSHR coated tubes; 1.0 units/L, in serum.
Test [35] shares this target. Put plainly: 125I-TSH binding inhibition, TSHR coated tubes; 0.25 units/L, in assay buffer.
The target is the same in test [36]. Put plainly: 125I-TSH binding inhibition, TSHR coated tubes; 40.0 units/L, in assay buffer.
Test [37] shares this target. Put plainly: 125I-TSH binding inhibition, TSHR coated tubes; 8.0 units/L, in assay buffer.
The target is the same in test [38]. The test is described as follows: 125I-TSH binding inhibition, TSHR coated tubes; 1.0 units/L, in assay buffer.
Test [39] shares this target. Put plainly: 125I-TSH binding inhibition, TSHR coated tubes; 0.5 units/L, in serum.
The target is the same in test [40]. The test is described as follows: 125I-TSH binding inhibition, TSHR coated tubes; 2.0 units/L, in serum.
The target is the same in test [41]. Put plainly: 125I-TSH binding inhibition, TSHR coated tubes; 0.125 units/L, in assay buffer.
Test [42] shares this target. Put plainly: 125I-TSH binding inhibition, TSHR coated tubes; 4.0 units/L, in serum.
The target is the same in test [43]. The test is described as follows: 125I-TSH binding inhibition, TSHR coated tubes; 40.0 units/L, in serum.
For test [44] the target is unchanged. The test is described as follows: 125I-TSH binding inhibition, TSHR coated tubes; 0.25 units/L, in serum.
For test [45] the target is unchanged. Put plainly: 125I-TSH binding inhibition, TSHR coated tubes; 0.125 units/L, in serum.
Test [46] has the same target. Put plainly: 125I-TSH binding inhibition, TSHR coated tubes; 0.5 units/L, in assay buffer.
Test [47] addresses T2, human TSH receptor, full length, detergent-solubilised, coated on tubes or ELISA plate wells (human, UniProt P16473 22-764).
T2 construct: Full length recombinant receptor expressed in CHO cells, solubilised and coated via a C-terminal antibody; also called wild type TSHR; full length TSHR
The test is described as follows: TSHR binding affinity (summary table; Scatchard analysis, TSHR coated tubes).

Regarding 125I-labelled TSH (ligand), the % binding in [1] amounted to 12.6%; in test [2] it was 12.9%.
Turning to M22 Fab-peroxidase conjugate, the OD450 nm was determined as 0.126 OD450 nm in test [3]; 0.268 OD450 nm in test [4]; 1.16 OD450 nm with TSHR LRD C-CAP (human) [5]; 2.29 OD450 nm with TSHR260 [6]; 1.16 OD450 nm with TSHR LRD C-CAP (human) [7]; 2.11 OD450 nm in [8]. For the same molecule, the OD450 nm stood at 2.4 OD450 nm in test [9]; 1.98 OD450 nm in test [10]; 1.75 OD450 nm in test [11]; 1.84 OD450 nm with TSHR260 [12]; 1.83 OD450 nm with TSHR LRD C-CAP (human) [13]; 1.68 OD450 nm with TSHR260 [14].
In the case of “Thyroid Stimulating Autoantibody reference preparation NIBSC 90/672”, the Inhibition of binding (%) in [15] was determined as 2.8%; in [16] it was 0.9%; in test [17], 15.5%; in [18], 9.3%; in test [19] it was 2.4%; in [20], 53.3%. For the same molecule, the Inhibition of binding (%) was determined as 90% in test [21]; 62.2% in test [22]; 22.9% in test [23]; 63.2% in test [24]; 3.5% in [25]; 14.1% in test [26]. For the same molecule, the Inhibition of binding (%) was 27.2% in [27], 5.1% in test [28], 49.2% in test [29] and 90.9% in test [30].
As to WHO reference preparation NIBSC 90/672, the Inhibition of binding (%) is 26.2% in test [31]; 65.3% in [32]; 49% in test [33]; 8.1% in test [34]; 0% in test [35]; 91% in test [36]. Besides, the Inhibition of binding (%) was 62.7% in test [37]; 14% in test [38]; 5.6% in [39]; 18.2% in [40]; 0% in test [41]; 34.8% in test [42]. In addition, the Inhibition of binding (%) in test [43] is 90.9%; in [44], 0%; in test [45], 0%; in [46] it was 3.1%.

B1: K1-70 IgG (human monoclonal TSHR autoantibody with blocking activity) (antibody, V domains shown)
VH: EVQLVQSGAEVKKPGQSLKISCKASGYSLTDNWIGWVRQKPGKGLEWMGIIYPGDSDTRYSPSFQGQVTISADKSINTAYLQWSSLKASDTAIYYCVGLDWNYNPLRYWGPGTLVTVSS
VL: QSVLTQPPSVSAAPGQKVTISCSGSSSDIGSNYVSWYQQFPGTAPKLLIYDNNKRPSAIPDRFSGSKSGTSATLGITGLQTGDEADYYCGTWDSRLGIAVFGGGTQLTVLG
notes: IgG1 lambda purified from hetero-hybridoma supernatant
B1 registered a Ka in test [47] of 3.9e+10 M⁻¹.
